Test results published in patent publication US20160355590A1 (UNIVERSITY OF SOUTHERN CALIFORNIA, published 2016).

Assays:
[1] = molecular target: human HLA-DR (allele not stated), on cells (human); assay: Scatchard plot analysis, avidity constant on tonsil lymphocytes
[2] = molecular target: human HLA-DR (allele not stated), on cells (human); assay: Scatchard plot analysis, normal B cells against tumor cell line
[3] = molecular target: human HLA-DR (allele not stated), on cells (human); assay: Scatchard plot analysis, avidity constant on ARH-77 myeloma cells

Row | Binder | Ka [1] | fold decrease in binding affinity on normal B cells against tumor cells [2] | Ka [3]
1 | Lym-1 monoclonal antibody (antibody, V domains shown, Mouse (BALB/c) hybridoma monoclonal antibody raised against Raji Burkitt's lymphoma cell nuclei; detected with goat anti-mouse IgG) VH: QLKESGPGLVAPSQSLSITCTISGFSLTSYGVHWVRQPPGKGLEWLVVIWSDGSTTYNSALKSRLSISKDNSKSQVFLKMNSLQTDDTAIYYCASHYGSTLAFASWGHGTLVTVSA VL: DIQMTQSPASLSASVGETVTIICRASVNIYSYLAWYQQKQGKSPQLLVYNAKILAEGVPSRFSGSGSGTQFSLKINSLQPEDFGSYYCQHHYGTFTFGSGTKLEIK | 8.8e+07 M⁻¹ | 4 fold | 
2 | Lym-2 monoclonal antibody (antibody, V domains shown, Mouse (BALB/c) hybridoma monoclonal antibody raised against CLL biopsy cell nuclei; detected with goat anti-mouse IgG) VH: EVQLEESGGGLVQPGGSMKLSCVASGFTFSNYWMNWVRQSPEKGLEWVAEIRFKSHNYATHFAESVKGRFTISRDDSKSSVYLQMNNLRAEDTGIYYCTRRIGNSDYDWWYFDVWGAGTSVTVSS VL: DIVMTQSHKFMSTSVGDRVSVTCKASQNVGNNVAWYQQKPGQSPKVLIYSASYRYSGVPDRFTGSGSGTDFTLTISNVQSEDLAEYFCQQYNTYPFTFGSGTKLEIK | 1.23e+08 M⁻¹ | 2 fold | 2.33e+08 M⁻¹
